Laboratory results from the supplement of paper PMC9732359.
± gives the uncertainty stated by the source.

Assay: protein stability index of a GFP-peptide fusion (yeast GPS) (PSI 1-4); higher = more stable; sorted into four equal gates, so the index is relative within each strain
Conditions: doa10∆
Outline: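 Tiled 17-residue yeast protein peptides were fused downstream of GFP in a plasmid that also expresses Cherry, and the pooled library was carried in yeast. Mid-log cultures in leucine-free medium were sorted into four equal gates by GFP/Cherry fluorescence ratio, and plasmids from each gate were PCR-amplified and Illumina-sequenced, with reads assigned to strains by barcodes. The protein stability index for each peptide was each gate's read frequency times its gate number, summed.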
Work on KTLTGKTITLEVESSDT [RPS31] yielded a protein stability index of 2.62 ± 0.048.
Work on KTLVALEKQEDYIDNLV [RPC37] yielded a protein stability index of 3.23 ± 0.11.
Work on KTNFQDVILDYQTKKFY [REC8] yielded a protein stability index of 1.62 ± 0.072.
KTWEKVTLDFGNIFADL [SMC2] gave a protein stability index of 2.81 ± 0.099.
With KTYGISDDIISQVDPIT [FAS2] the protein stability index was 1.71 ± 0.16.
Work on KVAKRTKIKPFIKVVNY [RPL27A] yielded a protein stability index of 2.9 ± 0.09.
Work on KVGYTLPSHIISTSDVT [RPL4A] yielded a protein stability index of 2.49 ± 0.048.
Work on KVKPIRGFCQRLKGKQG [RPO31] yielded a protein stability index of 2.79 ± 0.14.
For KVPDSTYDMVGGLTKQI [RPT6], the protein stability index was 2.27 ± 0.15.
KVQDAIEEEIFDDSSRI [LIN1] gave a protein stability index of 3.07 ± 0.1.
With KVQISKIPILAQHESFL [RPN9] the protein stability index was 1.97 ± 0.06.
KVTKIWSKESNYDCKVI [PRP28] gave a protein stability index of 2.93 ± 0.1.
In the case of KVTLNKETQQYELEFDT [BRR2], the protein stability index is reported as 3.13 ± 0.058.
KVTSYDITGDIRNEGSD [ISW2] showed a protein stability index of 3.15 ± 0.17.
Sequence KVVEFAITHMIDALGTE [SCL1] has a protein stability index of 2.03 ± 0.044.
Sequence KVVKAIRIYFTEKDDNK [NUT1] has a protein stability index of 2.31 ± 0.13.
With KWPEYVRLQRQKKILSI [RPL8B] the protein stability index was 1.18 ± 0.061.
KYKLISRIVEIFALCIY [YML103C/NUP188] showed a protein stability index of 1.58 ± 0.059.
Sequence KYLLTQRVFKPVDITMM [PRP8] has a protein stability index of 2.98 ± 0.081.
KYPARRIHTNDNDIMNL [SSN3] showed a protein stability index of 2.83 ± 0.074.
Work on KYYLEESNVNDSDMLTK [NUT1] yielded a protein stability index of 3.13 ± 0.097.
Sequence LAAERKVTSTLLEQDTS [PRE9] has a protein stability index of 2.46 ± 0.066.
Sequence LADRDEFIQDSAARGLS [ECM29] has a protein stability index of 1.55 ± 0.092.
For LAFYQVTPEEDEEEDEE [RPL22A], the protein stability index was 3.14 ± 0.1.
With LAGKRGPKSGSTMGTPT [PGD1] the protein stability index was 3.35 ± 0.061.
LAGKVGSIRVHKSGKLS [RPC53] gave a protein stability index of 1.45 ± 0.058.
For LAIKDSKKRFAAIWTLC [RPO21], the protein stability index was 1.9 ± 0.045.
With LAKILARSIDVEKGVNP [ECM29] the protein stability index was 1.21 ± 0.09.
In the case of LALGCHFQDQKNKKIEV [POP7], the protein stability index is reported as 2.65 ± 0.18.
LALQRGATVFVNHLLLF [DPB4] gave a protein stability index of 1.42 ± 0.046.
LALTTLSEPLIKIGIRV [YCG1] showed a protein stability index of 1.81 ± 0.061.
Work on LANYLTSALSELSGLIS [QCR2] yielded a protein stability index of 1.48 ± 0.047.
For LASSFVNGFLNLGYCND [RPN1], the protein stability index was 3.2 ± 0.1.
In the case of LATAHIYLSRFLIKASV [SSN8], the protein stability index is reported as 1.23 ± 0.042.
LATLLGHNDWVSQVRVV [ASC1] showed a protein stability index of 1.94 ± 0.085.
LAYSKIVNGQTFSYVDS [YMR129W/POM152] showed a protein stability index of 2.25 ± 0.045.
Sequence LCRQGHNMLNLLIHRKG [PRP8] has a protein stability index of 2.33 ± 0.061.
Sequence LCSMLQEASQVTFIFGE [MED11] has a protein stability index of 2.06 ± 0.053.
In the case of LCVLWDDLQSSVIPEVD [YCG1], the protein stability index is reported as 1.88 ± 0.095.
With LDCDGGFIDASCIAVMA [RRP45] the protein stability index was 1.87 ± 0.047.
With LDERFASRVALNKEKLG [IRR1] the protein stability index was 1.27 ± 0.057.
In the case of LDESSEQKNTAKEELNG [YIL149C/MLP2], the protein stability index is reported as 3.1 ± 0.15.
LDNKGSGEDAEEELWNS [YIL149C/MLP2] gave a protein stability index of 3.31 ± 0.17.
Sequence LDNLTEDPNSAAFDEVE [DIS3] has a protein stability index of 3.19 ± 0.085.
Sequence LDRPEYLKKREAGEVKD [RPL10] has a protein stability index of 3.27 ± 0.12.
Sequence LDTFIKIDGNPDELIKA [PRE5] has a protein stability index of 3.19 ± 0.12.
LEDLKDVYASKVRLNAS [PRP8] showed a protein stability index of 2.31 ± 0.043.
Work on LEDLKNTKEIAVDLEHH [RRP6] yielded a protein stability index of 2.66 ± 0.061.
Work on LEEHKNHLDELQKKFVT [SMC1] yielded a protein stability index of 2.88 ± 0.08.
With LEEVEGSCTGKFGYILC [RPB7] the protein stability index was 2.14 ± 0.067.
With LEIALFKYRKARLEPGT [RPO31] the protein stability index was 3.24 ± 0.17.
In the case of LEILIVTKDGVRKEFYE [PRE7], the protein stability index is reported as 2.91 ± 0.063.
For LEIRNKICSSEMINEQK [RGR1], the protein stability index was 3.02 ± 0.11.
In the case of LEKTSRILNFFDKNTKT [YMR153W/NUP53], the protein stability index is reported as 2.59 ± 0.08.
With LELNLSVLHSWVQLVQI [YJL039C/NUP192] the protein stability index was 1.28 ± 0.074.
For LENKENGLLNEISRLKT [SMC2], the protein stability index was 3.31 ± 0.18.
With LESDFVTGASQFQRLAP [PRE2] the protein stability index was 2.88 ± 0.094.
Sequence LESDVNIALVSKLRNNI [SRP54] has a protein stability index of 2.31 ± 0.065.
With LEYNVALNDVYLDADVA [YML031W/NDC1] the protein stability index was 3.32 ± 0.13.
With LFAESHDVLQKLNTLSE [YML103C/NUP188] the protein stability index was 2.77 ± 0.067.
LFDAAFYMKKDAVEGVS [RPO31] gave a protein stability index of 2.75 ± 0.24.
Work on LFDTYHASKAIGLPRHS [RRP6] yielded a protein stability index of 2.15 ± 0.061.
Sequence LFKKITNVNPSKNFNVI [YML103C/NUP188] has a protein stability index of 2.63 ± 0.048.
LFLNNFVSRIPIMFQDF [IRR1] gave a protein stability index of 1.97 ± 0.057.
For LFMKSLIENCKKRNMPL [SWI1], the protein stability index was 2.68 ± 0.053.
With LFNNHLNGILADEMGLG [SNF2] the protein stability index was 2.83 ± 0.11.
For LFQDGSASLHTRSLKYG [RRP4], the protein stability index was 2.48 ± 0.085.
LFQNVPEQGEEPMKQLN [YAR002W/NUP60] gave a protein stability index of 3.62 ± 0.15.
For LFWKVKEEEGSFNNVIG [PRE2], the protein stability index was 3.13 ± 0.12.
With LGCTLVTLLANVRALYM [RMP1] the protein stability index was 1.62 ± 0.17.
Sequence LGHPDNYIPGNPLVTPA [COB] has a protein stability index of 2.49 ± 0.11.
Sequence LGITGLATDVTTLNEMF [PUP3] has a protein stability index of 2.2 ± 0.16.
For LGLCLVIQIVTGIFMAM [COB], the protein stability index was 1.36 ± 0.053.
LGLKLACLGNDGILRLY [YGL100W/SEH1] showed a protein stability index of 1.78 ± 0.056.
For LGLLTPEVVELCQKSPV [FAS2], the protein stability index was 2.28 ± 0.071.
Work on LGLYVGVDDQILATNSL [YJL039C/NUP192] yielded a protein stability index of 2.64 ± 0.092.
In the case of LGTIESAQAETEALLLE [DIS3], the protein stability index is reported as 2.92 ± 0.1.
In the case of LGVASFHGTSTKANDKN [FAS2], the protein stability index is reported as 3.09 ± 0.079.
LGYKAKQGFVIYRVRVR [RPL15A] showed a protein stability index of 2.22 ± 0.1.
LGYKDTSVIQDLSEKIL [BRR2] showed a protein stability index of 2.77 ± 0.098.
For LHGLTPTAKDVEVIKQL [GAL11], the protein stability index was 3.08 ± 0.078.
Sequence LHKLQRMRLRALETENM [GRR1] has a protein stability index of 1.46 ± 0.046.
Sequence LHQHVVLKCLKSLESQR [RPC34] has a protein stability index of 2.77 ± 0.11.
LHQRTHKQVYPLRMETI [DSN1] showed a protein stability index of 2.28 ± 0.06.
LHRLTPKNVKGEEDADE [RPN1] showed a protein stability index of 3.65 ± 0.26.
For LHVVITLLREVVFTRLV [CSN12], the protein stability index was 1.26 ± 0.052.
LIAEESEDDSESGKVFI [RPB2] showed a protein stability index of 3.03 ± 0.23.
Work on LIDSLPGVDVSAEEQLR [SRB7] yielded a protein stability index of 2.59 ± 0.064.
Work on LIEFQPSQGVHYKVPTD [MED6] yielded a protein stability index of 2.6 ± 0.066.
LIGCIPYSKNAVEQLAG [YDL088C/ASM4] showed a protein stability index of 3.08 ± 0.2.
Sequence LIIDEIHLLHDDRGPVL [BRR2] has a protein stability index of 2.98 ± 0.1.
For LIIDGFKSYATRTVITD [SMC2], the protein stability index was 2.82 ± 0.11.
LIKAKNFLVFQGDVEQI [SMC1] showed a protein stability index of 2.63 ± 0.19.
With LIKFVDLSRNGRNGSNG [NUT1] the protein stability index was 3.08 ± 0.074.
LILAGQVKVKGQLGEMA [YCS4] gave a protein stability index of 3.49 ± 0.1.
For LILIPGETMWVPIKSSK [RPN13], the protein stability index was 2.17 ± 0.083.
Sequence LIPTIFRYITTWENEFL [PRP8] has a protein stability index of 2.38 ± 0.056.
For LIQEHDSRKNREQSSND [BRN1], the protein stability index was 3.38 ± 0.078.
For LIQSTEFPSITSSVILG [YOR098C/NUP1], the protein stability index was 3.16 ± 0.12.
In the case of LIRRLVRVGVLSEDKKK [RPS9A], the protein stability index is reported as 1.7 ± 0.24.
In the case of LISNLLFSKNRNEVLES [YCS4], the protein stability index is reported as 1.96 ± 0.062.
